Experimental data as given in US20230280343A1.

Target: p300 (UniProt Q09472)
Assay: not stated; comparator to the H-MAP-1 ELISA

p300, sequence (Q09472 323-423 limits assumed): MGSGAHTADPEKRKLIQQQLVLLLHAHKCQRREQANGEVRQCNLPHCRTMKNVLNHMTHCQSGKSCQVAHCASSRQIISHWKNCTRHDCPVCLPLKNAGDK

**Q.** “native HIF1α protein (from UniProt Q16665 786-826)” was tested. Which Kd did it give?
**A.** The Kd was 0.38 nM.
